What all share (test): SEC-MALS + native gel or EMSA; static light scattering (DynaPro, Wyatt) after Superdex 200, 100 uL at >1 mg/mL in 10 mM PBS pH 7.4, flow 0.45 mL/min, LS, UV and dRI detection; 10% native-PAGE, 1 umol protein loaded; oligomeric state in solution
(In gel filtration, larger molecules generally elute earlier.)

In assay [1] the target is rFIP-nha N5A glycosylation mutant, expressed in P. pastoris (Nectria haematococca).
In assay [2] the target is rFIP-nha wild-type (fungal immunomodulatory protein from Nectria haematococca), expressed in P. pastoris (Nectria haematococca).
Assay [3] addresses rFIP-nha N39A glycosylation mutant, expressed in P. pastoris (Nectria haematococca).
For assay [4], the target named is rFIP-nha N5+39A double glycosylation mutant, expressed in P. pastoris (Nectria haematococca).

As a reminder, the stoichiometry N is a count of units in the complex or per binding partner. Turning to “rFIP-nha N5A glycosylation mutant, expressed in P. pastoris (natural protein)”, the stoichiometry N in assay [1] came out at 4.

With “rFIP-nha wild-type (fungal immunomodulatory protein from Nectria haematococca), expressed in P. pastoris (natural protein)”, in assay [2], the stoichiometry N was 4.

On to “rFIP-nha N39A glycosylation mutant, expressed in P. pastoris (natural protein)”, for which the stoichiometry N in assay [3] came to 4.

Regarding “rFIP-nha N5+39A double glycosylation mutant, expressed in P. pastoris (natural protein)”, in assay [4], the stoichiometry N was determined as 4.

Source of the values: publication PMC10490071.
